In the test the target is untagged RNF8 FHA domain (UniProt O76064). Description: ITC. (In general: ITC needs no label: the signal is the heat of the interaction.)

The source of these data is paper PMC3648639.

What is called Kd is the concentration at which binding is half-saturated. A higher Kd goes with lower affinity.

UniProt O76064, sequence (O76064 38-92): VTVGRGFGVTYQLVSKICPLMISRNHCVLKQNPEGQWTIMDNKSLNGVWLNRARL

Consider ICP0 pT67 peptide, for which the Kd turned out to be 833 nM.
